T1: Cynomolgus Monkey VSIG4-L-His (cynomolgus monkey)
T1 construct: ECD with His tag; also called cyVSIG4-L; cyno VSIG4-L-His
T1 chain: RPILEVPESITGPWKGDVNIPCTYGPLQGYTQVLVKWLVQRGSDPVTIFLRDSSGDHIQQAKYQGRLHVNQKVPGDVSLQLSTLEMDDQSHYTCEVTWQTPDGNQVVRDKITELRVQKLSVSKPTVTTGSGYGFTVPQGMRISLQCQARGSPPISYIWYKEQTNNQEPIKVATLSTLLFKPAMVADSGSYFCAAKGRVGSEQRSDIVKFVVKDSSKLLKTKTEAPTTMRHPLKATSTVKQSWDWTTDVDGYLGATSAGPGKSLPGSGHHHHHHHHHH

T2: Human VSIG4-L-His (human, UniProt Q9Y279 20-283)
T2 construct: long isoform ECD with His tag; also called hVSIG4-L
T2 sequence: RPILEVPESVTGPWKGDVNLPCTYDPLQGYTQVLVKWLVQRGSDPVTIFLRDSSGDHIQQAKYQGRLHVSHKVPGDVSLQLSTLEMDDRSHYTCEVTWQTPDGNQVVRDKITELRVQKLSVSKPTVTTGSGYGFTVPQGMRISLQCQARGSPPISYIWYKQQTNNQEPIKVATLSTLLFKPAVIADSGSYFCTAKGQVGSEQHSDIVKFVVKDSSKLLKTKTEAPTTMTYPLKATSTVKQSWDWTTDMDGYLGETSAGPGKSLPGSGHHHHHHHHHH

T3: Mouse VSIG4-His (mouse)
T3 construct: ECD with His tag; also called mVSIG4
T3 chain: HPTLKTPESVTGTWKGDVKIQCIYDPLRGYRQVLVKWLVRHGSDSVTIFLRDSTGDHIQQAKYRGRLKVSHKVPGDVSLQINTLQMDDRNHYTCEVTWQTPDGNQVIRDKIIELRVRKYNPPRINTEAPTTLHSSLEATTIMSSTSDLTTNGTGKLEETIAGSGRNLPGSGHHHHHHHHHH

T4: Human VSIG4-S-His (human, UniProt Q9Y279 20-283)
T4 construct: short isoform ECD with His tag; also called hVSIG4-S; VISG4-S-His
T4 sequence: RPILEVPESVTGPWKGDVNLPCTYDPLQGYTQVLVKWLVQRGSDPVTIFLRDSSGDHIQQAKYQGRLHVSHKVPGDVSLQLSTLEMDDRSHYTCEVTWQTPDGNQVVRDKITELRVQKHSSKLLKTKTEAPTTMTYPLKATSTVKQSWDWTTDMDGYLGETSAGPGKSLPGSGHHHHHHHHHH

T5: Human VSIG4-L-CHO (human VSIG4 long isoform on CHO-K1 cells) (human, UniProt Q9Y279 20-399)
T5 construct: also called hVSIG4-L (flow cytometry)
T5 sequence: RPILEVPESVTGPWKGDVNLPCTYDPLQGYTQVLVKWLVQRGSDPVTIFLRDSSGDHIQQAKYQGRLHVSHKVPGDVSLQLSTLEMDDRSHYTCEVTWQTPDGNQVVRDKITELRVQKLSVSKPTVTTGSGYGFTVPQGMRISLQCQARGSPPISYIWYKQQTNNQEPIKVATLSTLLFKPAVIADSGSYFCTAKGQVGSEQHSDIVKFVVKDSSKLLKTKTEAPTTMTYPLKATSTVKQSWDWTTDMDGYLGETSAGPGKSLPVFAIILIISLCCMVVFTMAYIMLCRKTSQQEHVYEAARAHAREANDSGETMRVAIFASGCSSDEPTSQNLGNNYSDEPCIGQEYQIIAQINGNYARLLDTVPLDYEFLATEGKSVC

B1: 14D12 mouse Fab (periplasmic extract) (Fab, V domains shown)
VH: QIQLVQSGPELKKPGETVKISCKASGYTFTNYGMNWVKQTPGKGLKWMGLINTYTGEPTYADDFKGRFAFSLETSASTAYLQINNLKNEDMATYFCARERIYGYLHYFDYWGQGTTLTVSS
VL: DVVMTQTPASLAVSLGQRATISCKASQSVDYDGDSYMNWYQQKPGQPPKLLIYAASNLESGIPARFSGSGSGTDFTLNIHPVEEEDAATYYCQQSNEDPRTFGGGTKLEIK
notes: mouse Fab with C-terminal His6-c-myc tag
B2: 14C05 mouse Fab (periplasmic extract) (Fab, V domains shown)
VH: EVMLVESGPELKKPGETVKISCKASGYTFTNYGMNWVKQAPGKGLKWMGSINTYTGEATYADDFKGRFAFSLETSANTAYLQIDNLKNEDTATYFCARGDYYGRGTWFAYWGQGTLVTVSA
VL: ETTVTQSHKFMSTSVGDRVSITCKASQDVSTAVAWYQQKPGQSPKLLIYSASYRYPGVPDRFTGSGSGTDFTFTISSVQAEDLAVYYCQQDYSSPWTFGGGTKLEIK
notes: as for B1
B3: 16E10 mouse Fab (periplasmic extract) (Fab, V domains shown)
VH: QVQLQQSGAELVRPGTSVKISCKASGYTFTNYWLGWVKQRPGHGLEWIGDIYPGGGYTNYNEKFKGKATLTADTSSSTAYMQLSSLTSEDSAVYFCAKFYYYGSSYYFDSWGQGTTLTVSS
VL: DIVLTQSPSSLSVSAGEKVTLSCKSSQSLLNSGNQENYLAWYQQKPGQPPKLLIYGASTRESGVPDRFTGSGSGTDFTLTISSVQAEDLAVYYCQNDHSYPLTFGAGTKLELK
notes: as for B1
B4: 16E03 mouse/human chimeric IgG4 (S228P) kappa (antibody, V domains shown)
VH: QVQLQQSGAELARPGASVKMSCKASGYTFTSYTMHWIKQRPGQGLEWIGYINPSSGHTYYNQKFKDKATLTPDKSSSTAYMQLTSLTSEDSAVYYCARRIPTAYAMDYWGQGTSVTVSS
VL: EIQMTQSHKFMSTSVGDRVSITCKASQDVGTAVAWYQQKPGQSPKLLIYWASTRHTGVPDRFTGSGSGTDFTLTISNVQSEDLADYFCQQYSSYPLTFGAGTKLELKR
B5: 15C03 mouse/human chimeric IgG4 (S228P) kappa (antibody, V domains shown)
VH: EVKLLESGPGLVKPSQSLSLTCTVTGYSITSDYAWNWIRQFPGNKLEWMGYISYSGSTRYNPSLKSRISITRDTSNNQFFLQLNSVTTEDTATYYCARSGYAAMDYWGQGTSVTVSS
VL: ENVLTQSPAIMSASPGEKVTMTCRASSSVSSSYLHWYQQKSGASPKLWIYSTSNLASGVPARFSGSGSGTSYSLTISSVEAEDAATYYCQQYSGYPLTFGSGTKLEIKR

Experiments:
Human VSIG4-L-Fc [1] = biological target: T6, Human VSIG4-L-Fc (human); experiment: ELISA, Fab P.E. 1:5 on coated antigen;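 further: mouse Fab P.E. samples in 1% skimmed milk PBS, bound to antigen-coated wells for 1 h at room temperature, read as absorbance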
T6 construct: also called hVSIG4-L-Fc; hVSIG4-L
Target sequence in this assay (chain, as listed by the source limits assumed): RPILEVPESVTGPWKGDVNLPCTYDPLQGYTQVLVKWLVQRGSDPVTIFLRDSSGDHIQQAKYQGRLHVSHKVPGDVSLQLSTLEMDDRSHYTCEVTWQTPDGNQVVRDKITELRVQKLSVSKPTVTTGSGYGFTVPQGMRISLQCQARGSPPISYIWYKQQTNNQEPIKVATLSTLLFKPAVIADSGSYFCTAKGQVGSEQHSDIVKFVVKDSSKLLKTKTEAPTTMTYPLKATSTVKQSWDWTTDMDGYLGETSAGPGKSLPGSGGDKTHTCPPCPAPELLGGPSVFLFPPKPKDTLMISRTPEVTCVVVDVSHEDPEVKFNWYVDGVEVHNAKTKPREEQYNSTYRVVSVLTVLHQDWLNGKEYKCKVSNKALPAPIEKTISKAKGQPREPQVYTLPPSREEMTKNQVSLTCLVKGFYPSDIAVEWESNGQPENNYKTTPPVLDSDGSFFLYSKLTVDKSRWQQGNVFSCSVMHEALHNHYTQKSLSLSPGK
Experimental: (§1) Coated microplates were blocked with dried skimmed milk at 4% in PBS. P.E. samples of the mouse unique Fab sequences were diluted 1:5 in assay buffer (1% dried skimmed milk in PBS), and 100 μl of diluted sample was added onto the coated wells and incubated for one hour at room temperature. […] Optical density (OD) at 450 nm was determined using a standard absorbance microplate reader.

Human VSIG4-S-Fc [2] = biological target: T7, Human VSIG4-S-Fc (human); experiment: ELISA, Fab P.E. 1:5 on coated antigen;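 further: mouse Fab P.E. samples in 1% skimmed milk PBS, bound to antigen-coated wells for 1 h at room temperature, read as absorbance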
T7 construct: short isoform ECD fused to human Fc1; also called hVSIG4-S
T7 sequence (chain, as listed by the source limits assumed): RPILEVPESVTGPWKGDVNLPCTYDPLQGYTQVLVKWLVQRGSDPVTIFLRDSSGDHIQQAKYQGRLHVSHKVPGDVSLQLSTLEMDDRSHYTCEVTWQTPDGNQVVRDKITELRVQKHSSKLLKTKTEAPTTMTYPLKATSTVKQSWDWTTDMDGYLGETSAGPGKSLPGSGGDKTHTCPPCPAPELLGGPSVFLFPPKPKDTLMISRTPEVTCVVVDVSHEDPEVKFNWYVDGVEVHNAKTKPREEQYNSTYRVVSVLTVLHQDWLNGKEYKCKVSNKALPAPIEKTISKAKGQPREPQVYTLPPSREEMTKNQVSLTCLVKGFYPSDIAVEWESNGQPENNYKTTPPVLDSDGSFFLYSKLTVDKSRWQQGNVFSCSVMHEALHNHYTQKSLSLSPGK
Experimental: as §1

[3] = biological target: T1, Cynomolgus Monkey VSIG4-L-His; experiment: ELISA, Fab P.E. 1:5 on coated antigen;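 further: mouse Fab P.E. samples in 1% skimmed milk PBS, bound to antigen-coated wells for 1 h at room temperature, read as absorbance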
Experimental: as §1

Human VSIG4-L-Fc [4] = biological target: T6, Human VSIG4-L-Fc; experiment: blocking ELISA, biotin-C3b on coated hVSIG4-L-Fc
Experimental: (§2) Coated microplates were blocked with casein (Sigma-Aldrich, St. Louis, MO) at 1% in PBS. […] One hundred ill of the mixed sample was added onto the coated wells and incubated for one hour at room temperature. […] OD at 450 nm was determined using a standard absorbance microplate reader.

Human VSIG4-L-Fc [5] = biological target: T6, Human VSIG4-L-Fc; experiment: blocking ELISA, biotin-iC3b on coated hVSIG4-L-Fc
Experimental: as §2

Human VSIG4-L-His [6] = biological target: T2, Human VSIG4-L-His; experiment: SPR (Biacore T200), Fab P.E. 1:5 over immobilised antigen
Experimental: Off-rate values of the mouse unique Fab clones were determined using surface plasmon resonance (SPR) in Biacore™ T200 equipment (GE Healthcare, Chicago, IL). […] The immobilization was performed in accordance with a method provided by Biacore and by using the NHS/EDC kit (GE Healthcare, Chicago, IL). […] Sixty μl of Fab P.E. samples, diluted 1:5 in HBS-EP+ assay buffer (0.1 M HEPES, 1.5 M NaCl, 0.03 M EDTA and 0.5% v/v Surfactant P20), were injected and passed through the flow cells at a flow rate of 30 μl/min. After binding of the samples to VSIG4 protein, the off-rate was monitored for a period of five minutes. The flow cell surface was regenerated by a double injection of 10 μl of 1 mM glycine at pH 1.5 in 1 M sodium chloride at 30 μl/min. Off-rate analysis was done using the BIAevaluation software (GE Healthcare, Chicago, IL) and using a 1:1 dissociation kinetic fit curve.

Human VSIG4-L-His [7] = biological target: T2, Human VSIG4-L-His; experiment: SPR (FJB)
Human VSIG4-L-Fc [8] = biological target: T6, Human VSIG4-L-Fc; experiment: ELISA, IgG 50 nM on coated antigen;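 further: Mouse-human chimeric IgG4 antibodies incubated 1 h on plate-coated VSIG4 proteins, bound IgG detected with HRP-labelled anti-human IgG, irrelevant antibody and protein as specificity controls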
Experimental: (§3) The binding characteristics of selected antibodies identified in the phage display selections and reformatted as mouse-human chimeric IgG4 antibodies was assessed by ELISA for their ability to bind plate-bound human VSIG4-L, human VSIG4-S, cynomolgus monkey VSIG4, and mouse VSIG4 (Table 7). Antibodies were also assessed by ELISA for specificity to human VSIG4 compared to related VSIG4 B7 family members, including human B7-H1, B7-H2, B7-H3, B7-H4, B7-DC, B7-1, and B7-2 (Table 8).
(§4) Coated microplates were blocked with dried skimmed milk at 4% in PBS. Coated proteins were then incubated with each purified antibody at a concentration of 50 nM for 1 h to allow the binding to the proteins. Binding detection was measured using a goat anti-huIgG monoclonal detection antibody, HRP conjugated (Jackson Immune Research, West Gove, PA). As a control for specificity, an irrelevant antibody and protein were used. OD at 450 nm was determined using a standard absorbance microplate reader.

Human VSIG4-S-Fc [9] = biological target: T7, Human VSIG4-S-Fc; experiment: ELISA, IgG 50 nM on coated antigen;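 further: Mouse-human chimeric IgG4 antibodies incubated 1 h on plate-coated VSIG4 proteins, bound IgG detected with HRP-labelled anti-human IgG, irrelevant antibody and protein as specificity controls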
Experimental: as §3, §4

Mouse VSIG4-His = biological target: T3, Mouse VSIG4-His; experiment: ELISA, IgG 50 nM on coated antigen;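 further: Mouse-human chimeric IgG4 antibodies incubated 1 h on plate-coated VSIG4 proteins, bound IgG detected with HRP-labelled anti-human IgG, irrelevant antibody and protein as specificity controls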
Experimental: as §3, §4

Human VSIG4-L-His [10] = biological target: T2, Human VSIG4-L-His; experiment: BLI (Octet), IgG on AHC sensor, antigen 100 nM
Experimental: (§5) The binding affinity of chimeric antibodies was determined by biolayer interferometry (BLI), using a ForteBio Octet® Red384 system. […] Biosensors were rehydrated prior to the assay in kinetics buffer for 10 minutes and then equilibrated in kinetics buffer for 60 seconds. Antibody was then immobilized for 300 seconds followed by a 120 second baseline wash in fresh kinetics buffer, 300 second analyte association, and 300 second dissociation in the same buffer wells as the baseline wash step. All assay steps occurred at 30° C. with an acquisition rate of 5.0 Hz
(§6) Processing parameters included double reference subtraction, with human IgG4 used as an isotype control for reference sensor subtraction and immobilized ligand in kinetics buffer with no analyte used for reference sample subtraction. Y-axis data was aligned to the average baseline step for the last 5 seconds and all steps were inter-step corrected to the start of the dissociation step. High frequency noise was removed using Savitzky-Golay filtering and final fitting was a 1:1 global binding model to both association and dissociation.

Human VSIG4-S-His = biological target: T4, Human VSIG4-S-His; experiment: BLI (Octet), IgG on AHC sensor, antigen 100 nM
Experimental: as §5, §6

[11] = biological target: T5, Human VSIG4-L-CHO (human VSIG4 long …); experiment: flow cytometry, CHO-K1 cells expressing hVSIG4-L
Experimental: Three-fold serial dilution of each antibody starting at 200 nM were prepared in assay buffer (0.5% of heat inactivated Fetal bovine serum with 1:1000 Ethylenediaminetetraacetic acid in PBS). […] As a control for specificity, an irrelevant antibody was used. Binding detection was assessed using a goat anti-Human IgG (Fc specific), FITC conjugated polyclonal detection antibody (Sigma Aldrich, St. Louis, MO) and by acquisition of 10,000 cells per sample. Fluorescence was measured on an Attune™ NxT (Thermo Fisher Scientific, Waltham, MA).

Human VSIG4-L-Fc [12] = biological target: T6, Human VSIG4-L-Fc; experiment: BLI binning on hVSIG4-L-Fc, competitor 12A08 first;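 further: normalized to binding of second antibody without first competitor antibody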
Experimental: (§7) Epitopic diversity of functional antibodies was further assessed by antibody cross-blocking experiments, performed on a ForteBio Octet® Red384 system. […] All assay steps occurred at 30° C. with an acquisition rate of 5.0 Hz.
(§8) Binning results were calculated using ForteBio Data Analysis HT software. Antibody “a” and antibody “b” steps were defined, and the maximum binding calculation was averaged at the last 10% of the step duration. Once the matrix was generated, the antibody “b” binding signal in the absence of any antibody “a” was used to normalize the maximum binding of the competitor antibodies. Hierarchical clustering was set with a similarity metric of Pearson and Lingang Criteria by Mean, and the normalized maximum binding nm shift is reported in Table 9 below.

Human VSIG4-L-Fc [13] = biological target: T6, Human VSIG4-L-Fc; experiment: BLI binning on hVSIG4-L-Fc, competitor 12A12 first;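 further: normalized to binding of second antibody without first competitor antibody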
Human VSIG4-L-Fc [14] = biological target: T6, Human VSIG4-L-Fc; experiment: BLI binning on hVSIG4-L-Fc, competitor 13H11 first;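 further: normalized to binding of second antibody without first competitor antibody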
Experimental: as §7, §8

Human VSIG4-L-Fc [15] = biological target: T6, Human VSIG4-L-Fc; experiment: BLI binning on hVSIG4-L-Fc, competitor 14C05 first;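 further: normalized to binding of second antibody without first competitor antibody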
Experimental: as §7, §8

Human VSIG4-L-Fc [16] = biological target: T6, Human VSIG4-L-Fc; experiment: BLI binning on hVSIG4-L-Fc, competitor 14D12 first;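 further: normalized to binding of second antibody without first competitor antibody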
Experimental: as §7, §8

Human VSIG4-L-Fc [17] = biological target: T6, Human VSIG4-L-Fc; experiment: BLI binning on hVSIG4-L-Fc, competitor 15A06 first;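 further: normalized to binding of second antibody without first competitor antibody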
Experimental: as §7, §8

Human VSIG4-L-Fc [18] = biological target: T6, Human VSIG4-L-Fc; experiment: BLI binning on hVSIG4-L-Fc, competitor 15C03 first;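 further: normalized to binding of second antibody without first competitor antibody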
Human VSIG4-L-Fc [19] = biological target: T6, Human VSIG4-L-Fc; experiment: BLI binning on hVSIG4-L-Fc, competitor 15C04 first;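 further: normalized to binding of second antibody without first competitor antibody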
Experimental: as §7, §8

Human VSIG4-L-Fc [20] = biological target: T6, Human VSIG4-L-Fc; experiment: BLI binning on hVSIG4-L-Fc, competitor 16E03 first;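 further: normalized to binding of second antibody without first competitor antibody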
Experimental: as §7, §8

Human VSIG4-L-Fc [21] = biological target: T6, Human VSIG4-L-Fc; experiment: BLI binning on hVSIG4-L-Fc, competitor 16E10 first;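 further: normalized to binding of second antibody without first competitor antibody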
Experimental: as §7, §8

[22] = biological target: T5, Human VSIG4-L-CHO (human VSIG4 long …); experiment: flow cytometry (FJB), 200 nM mAb, huVSIG4-L CHO-K1 cells
Human VSIG4-L-Fc [23] = biological target: T6, Human VSIG4-L-Fc; experiment: ligand competition ELISA (FJB), blocked ligand C3b, 200 nM mAb
Human VSIG4-L-Fc [24] = biological target: T6, Human VSIG4-L-Fc; experiment: ligand competition ELISA (FJB), blocked ligand iC3b, 200 nM mAb
[25] = biological target: T5, Human VSIG4-L-CHO (human VSIG4 long …); experiment: flow cytometry (FJB), 200 nM mAb, huVSIG4-L CHO-K1 over parental CHO-K1
[26] = biological target: T1, Cynomolgus Monkey VSIG4-L-His; experiment: ELISA, IgG 50 nM on coated antigen; ELISA, bivalent IgG on plate-coated cyVSIG4-L (avid format)
Experimental: as §4

Human VSIG4-L-Fc [27] = biological target: T6, Human VSIG4-L-Fc; experiment: ligand blocking of C3b, IgG
Human VSIG4-L-Fc [28] = biological target: T6, Human VSIG4-L-Fc; experiment: ligand blocking of iC3b, IgG
Human VSIG4-L-Fc [29] = biological target: T6, Human VSIG4-L-Fc; experiment: ligand competition ELISA (FJB), blocked ligand C3b
Human VSIG4-L-Fc [30] = biological target: T6, Human VSIG4-L-Fc; experiment: ligand competition ELISA (FJB), blocked ligand iC3b

ELISA OD450 (Human VSIG4-L-Fc [1]) [OD450]	ELISA OD450 (Human VSIG4-S-Fc [2]) [OD450]	ELISA OD450 [3] [OD450]	Percent Blocking C3b (Human VSIG4-L-Fc [4]) [%]	Percent Blocking iC3b (Human VSIG4-L-Fc [5]) [%]	koff (Human VSIG4-L-His [6]) [s⁻¹]	Kd (Human VSIG4-L-His [7]) [nM]	ELISA OD450 (Human VSIG4-L-Fc [8]) [OD450]	ELISA OD450 (Human VSIG4-S-Fc [9]) [OD450]	ELISA OD450 (Mouse VSIG4-His) [OD450]	Kd (Human VSIG4-L-His [10]) [nM]	Kd (Human VSIG4-S-His) [nM]	EC50 [11] [nM]	normalized maximum binding nm shift (Human VSIG4-L-Fc [12]) [normalized]	normalized maximum binding nm shift (Human VSIG4-L-Fc [13]) [normalized]	normalized maximum binding nm shift (Human VSIG4-L-Fc [14]) [normalized]	normalized maximum binding nm shift (Human VSIG4-L-Fc [15]) [normalized]	normalized maximum binding nm shift (Human VSIG4-L-Fc [16]) [normalized]	normalized maximum binding nm shift (Human VSIG4-L-Fc [17]) [normalized]	normalized maximum binding nm shift (Human VSIG4-L-Fc [18]) [normalized]	other results	Binder
4.32	4.18	4.32	70.3	56	0.0063																B1
4.33	4.32	4.37	88.8	88.7	0.00037																B2
1.86	1.32	1.88	7.1	7.6	0.025																B3
						29.7	4.5	4.13	0.054	49.3	49.3	1	0.13	0.9	0.76	0.78	0.79	0.83	0.1	normalized maximum binding nm shift (Human VSIG4-L-Fc [19]): 0.86 normalized; normalized maximum binding nm shift (Human VSIG4-L-Fc [20]): 0.04 normalized; normalized maximum binding nm shift (Human VSIG4-L-Fc [21]): 0.37 normalized; Binding (200 nM) MFI [22]: 30400 MFI; % Block C3b (200 nM mAb) (Human VSIG4-L-Fc [23]): -192%; % Block iC3b (200 nM mAb) (Human VSIG4-L-Fc [24]): -3%; Binding (200 nM) Fold-Over-Parental [25]: 23 fold; ELISA OD450 [26]: 4.36 OD450	B4
						17.9	4.4	3.64	0.057	32.1	18.6	2.3	0.8	0.76	0.74	0.44	0.41	0.82	0.15	Percent Blocking C3b (Human VSIG4-L-Fc [27]): 90%; Percent Blocking iC3b (Human VSIG4-L-Fc [28]): 90%; normalized maximum binding nm shift (Human VSIG4-L-Fc [19]): 0.89 normalized; normalized maximum binding nm shift (Human VSIG4-L-Fc [20]): 0.13 normalized; normalized maximum binding nm shift (Human VSIG4-L-Fc [21]): 0.93 normalized; IC50 (Human VSIG4-L-Fc [29]): 2.4 nM; IC50 (Human VSIG4-L-Fc [30]): 12.8 nM; Binding (200 nM) MFI [22]: 48900 MFI; Binding (200 nM) Fold-Over-Parental [25]: 83 fold; ELISA OD450 [26]: 4.5 OD450	B5

— patent US20230348603A1 (VERSEAU THERAPEUTICS, published 2023)
